From patent publication US20230192867A1 (published 2023)

How the values were obtained:
huGARP/hLTGF-β complex [1] = biological target: T1, huGARP/hLTGF-β complex (human, UniProt P01137 30-390); test: cell-based or functional assay
huGARP/hLTGF-β complex [2] = biological target: T1, huGARP/hLTGF-β complex; test: flow cytometry on activated primary human Tregs, PE secondary antibody
Experimental: Anti-huGARP antibodies GARP.2, GARP.3, 1H10, 3H5, 22G8 and a hIgG1 isotype control were incubated at 4° C. for 30 minutes with activated Tregs from a healthy donor in a 96 well plate at a starting concentrations of 40 μg/ml followed by serial dilutions. Activated Tregs were prepared from previously isolated and expanded Tregs stimulated for two days with anti-CD3/CD28 activation beads (ThermoFisher, Waltham, Mass., USA) in the presence of 100 units/mL of recombinant human IL-2. An appropriate PE secondary antibody against the primary anti-GARP antibody was applied and washed off after incubation for 15 minutes at 4° C. Samples were processed on a flow cytometer and PE fluorescence intensities analyzed on FLOWJO® flow cytometry system. EC50 calculations were derived using […] PRISM® data analysis software.

T1 sequence (chain, as listed by the source, form in doubt, chain 1 of 2): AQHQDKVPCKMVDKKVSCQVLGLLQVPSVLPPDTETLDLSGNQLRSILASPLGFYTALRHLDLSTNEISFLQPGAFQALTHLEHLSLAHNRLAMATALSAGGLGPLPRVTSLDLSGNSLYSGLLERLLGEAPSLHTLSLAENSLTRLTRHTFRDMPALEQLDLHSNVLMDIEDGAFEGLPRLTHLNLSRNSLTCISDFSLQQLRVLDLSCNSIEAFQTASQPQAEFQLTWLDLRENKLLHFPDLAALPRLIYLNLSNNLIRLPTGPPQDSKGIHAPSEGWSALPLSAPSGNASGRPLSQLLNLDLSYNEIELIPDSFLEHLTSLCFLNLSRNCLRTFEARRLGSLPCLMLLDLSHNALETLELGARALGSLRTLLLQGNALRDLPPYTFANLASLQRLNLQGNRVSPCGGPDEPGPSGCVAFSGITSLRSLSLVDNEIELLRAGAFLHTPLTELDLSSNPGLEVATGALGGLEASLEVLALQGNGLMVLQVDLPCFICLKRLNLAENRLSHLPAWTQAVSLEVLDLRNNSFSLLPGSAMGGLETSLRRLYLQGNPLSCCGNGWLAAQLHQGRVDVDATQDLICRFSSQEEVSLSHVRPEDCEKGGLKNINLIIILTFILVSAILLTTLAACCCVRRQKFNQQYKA
T1 sequence (P01137 30-390, form in doubt, chain 2 of 2): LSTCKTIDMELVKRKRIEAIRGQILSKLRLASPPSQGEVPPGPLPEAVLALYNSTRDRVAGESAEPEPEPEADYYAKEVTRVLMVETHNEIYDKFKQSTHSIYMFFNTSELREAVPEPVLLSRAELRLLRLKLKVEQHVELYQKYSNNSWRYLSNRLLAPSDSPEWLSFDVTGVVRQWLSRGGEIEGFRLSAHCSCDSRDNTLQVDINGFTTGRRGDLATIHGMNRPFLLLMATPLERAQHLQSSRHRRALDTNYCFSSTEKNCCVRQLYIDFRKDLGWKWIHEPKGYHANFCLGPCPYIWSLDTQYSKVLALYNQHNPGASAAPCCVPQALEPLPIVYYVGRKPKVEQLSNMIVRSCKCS

B1: anti-huGARP mAb 10H7 (antibody, IgG1, V domains shown)
VH: QVQLVESGGGVVQPGRSLRLSCAASEFTFSSYGMYWVRQAPGKGLEWVSIIWHDGSKKYYVDSVKGRFTISRDNSKNTLYLQMNSLRGEDTAVYYCAREQWESWYLDLWGRGTLVTVSS
VL: not shown
TGF-β release (ELISA of soluble TGF-β after six hours, 3A9 cells expressing huGARP/latent TGF-β complex on αvβ8 integrin) (huGARP/hLTGF-β complex [1]): 16 fold

B2: anti-huGARP antibody GARP.2 (antibody, V domains shown)
VH: B1 VH
VL: not shown
notes: Variant of mAb 10H7 with a human IgG1.1 constant domain in place of the original IgG1; also called 10H7/GARP.2
EC50 (huGARP/hLTGF-β complex [2]): 610 pM
